Target: the molecule itself
Experiment: AUC; analytical ultracentrifugation of apo-AAC(2′)-Id; 20 mM Tris-HCl (pH 8.0), 150 mM NaCl, 293 K, 40,000 rpm, monitored at 280 nm, SEDFIT

B1: Aminoglycoside 2′-N-acetyltransferase from Mycolicibacterium smegmatis [AAC(2′)-Id] (enzyme)
chain: MLTQHVSEARTRGAIHTARLIHTSDLDQETRDGARRMVIEAFRDPSGDSDFTDDFTDDDWDHALGGMHALISHHGALIAHGAVVQRRLMYRGPDGRGHALRCGYVEAVAVREDRRGDGLGTAVLDALEQVIRGAYQIGALSASDIARPMYIARGWLSWEGPTSVLTPTEGIVRTPEDDRSLFVLPVDLPDGLELDTAREITCDWRSGDPW
notes: also called apo-AAC(2′)-Id; AAC(2′) from M. smegmatis; source: E. coli BL21(DE3), purified (Ni-NTA, Q-Sepharose, thrombin cleavage, Superdex 200); not shown: His-tag, N-terminal, cleaved
  stoichiometry N: 2

Reference: article PMC7725843, “Structural and biochemical analyses of an aminoglycoside 2′-N-acetyltransferase from Mycolicibacterium smegmatis” (Scientific Reports, 2020)
